The values below come from publication PMC9130890 (Advanced Science, 2022).

In one experiment the target is HIV-1 BG505 Env trimer (HIV-1 (strain BG505), UniProt Q2N0S6).
For experiment [1], the target named is HIV-1 C1080 Env trimer, stabilized in the prefusion-closed state (HIV-1 (CRF01_AE strain C1080)).

B1: J038 (antibody, V domains shown)
VH: QLHLQESGPGLVRPSETLSLTCDVSGGAFNDAYCSWIRRFPGGGLEWIGRISGRDGYVESNPALTGRVTMSIDATWKKIVLRLTSMTASDTATYFCAGETPEDDFGYYQPYFKTWGQGLGVTVSS
VL: DIQLIQSPSSVSASLGDRVTITCRSTQGIGSDLAWYQATPGTAPKLLIYNSFALHKGVPSRFSGSGSGTEFSLTITGLQPEDFATYYCQHYRRLPLTFGGGTNIEVK
With B1, the binding result (with HIV-1 BG505 Env trimer; in experiment [1]) was “binds” throughout.
